Data published in article PMC5861439 (Nucleic Acids Research, 2017).

Biological target: Saccharomyces cerevisiae Asf1 (2–169) (Saccharomyces cerevisiae, UniProt P32447 2-169)
Assay: ITC

Chain of Saccharomyces cerevisiae Asf1 (2–169) (P32447 2-169): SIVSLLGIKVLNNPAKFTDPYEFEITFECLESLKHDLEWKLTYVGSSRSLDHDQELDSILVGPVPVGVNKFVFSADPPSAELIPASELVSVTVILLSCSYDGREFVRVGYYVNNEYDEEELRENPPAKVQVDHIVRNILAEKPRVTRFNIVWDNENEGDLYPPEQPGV

B1: Rtt109^419–433 peptide (peptide)
peptide: LAITMLKPRKKAKAL
B1 was tested, and the Kd was 7.78 ± 1.23 µM.
